Data as given in publication PMC11405016.

Molecular target: Prominin 1 (Prom1) W795R, human S1 isoform, C-terminally Strep-tagged (human)
Assay: co-IP; EVs from co-transfected Expi293 cells, purified and solubilised with 1% DDM (25 mM HEPES-NaOH pH 7.8, 150 mM NaCl, 5 mM CaCl2); Prom1-Strep captured on StrepTactinXT 4Flow resin, 1 hr at 4°C; co-purified mNeonGreen or mScarlet fluorescence on the beads measured by montaged epifluorescence imaging, normalised to mTagBFP2-Strep on the resin

co-purified mScarlet fluorescence relative to WT Prom1 (% of WT Prom1): 60
Substance: Prominin 1 (Prom1) W795R, human S1 isoform, C-terminally Strep-tagged (natural protein)
